Assays:
[1] = target: IL-31 (target protein of mAb1, immobilized); assay: cell-based or functional assay
[2] = target: canine FcRn complex (FcRn-α subunit and β-microglobulin) with c-terminal 6x His + BAP tag, amine-immobilized (Example 3) (canine); assay: SPR (Biacore), FcRn amine-coupled on CM5, IgG flowed, pH 6, 15 C
[3] = target: canine FcRn complex (FcRn-α subunit and β-microglobulin) with c-terminal 6x His + BAP tag, amine-immobilized (Example 3) (canine); assay: SPR (Biacore), FcRn amine-coupled on CM5, IgG flowed, pH 7.2, 15 C
[4] = target: canine FcRn complex (FcRn-α subunit and β-microglobulin), biotin labeled by BirA, captured on SA chip (Example 5) (canine); assay: SPR (Biacore), biotinylated FcRn captured on SA chip, IgG flowed, pH 6, 15 C
[5] = target: IL-31 (target protein of mAb1, immobilized); assay: SPR (Biacore T200), target amine-coupled on CM5, antibody flowed, 15 C, 1:1 model

IC50 (cell based potency assay) [1]: 0.99 nM | Kd [2]: 0.7 to 1.3 nM | Kd [3]: 5000 nM | Kd [4]: 6.45 nM | Kd [5]: 0.373 nM
B1: caninized anti-IL31 antibody 34D03 (mAb1), canine IgGB (65), N434H (antibody)
heavy: EVQLVESGGDLVKPGGSLRLSCVASGFTFSNYGMSWVRQAPGKGLQWVATISYGGSYTYYPDNIKGRFTISRDNAKNTLYLQMNSLRAEDTAMYYCVRGYGYDTMDYWGQGTLVTVSSASTTAPSVFPLAPSCGSTSGSTVALACLVSGYFPEPVTVSWNSGSLTSGVHTFPSVLQSSGLYSLSSMVTVPSSRWPSETFTCNVAHPASKTKVDKPVPKRENGRVPRPPDCPKCPAPEMLGGPSVFIFPPKPKDTLLIARTPEVTCVVVDLDPEDPEVQISWFVDGKQMQTAKTQPREEQFNGTYRVVSVLPIGHQDWLKGKQFTCKVNNKALPSPIERTISKARGQAHQPSVYVLPPSREELSKNTVSLTCLIKDFFPPDIDVEWQSNGQQEPESKYRTTPPQLDEDGSYFLYSKLSVDKSRWQRGDTFICAVMHEALHHHYTQESLSHSPGK
VL: EIVMTQSPASLSLSQEEKVTITCKASQSVSFAGTGLMHWYQQKPGQAPKLLIYRASNLEAGVPSRFSGSGSGTDFSFTISSLEPEDVAVYYCQQSREYPWTFGQGTKLEIK

From patent US20230242635A1 (published 2023)
